Experimental data: article PMC2139591

Biological target: NGF-specific-receptor-like molecule (NSR) from C 1300 neuroblastoma cells (mouse (endogenous in C 1300 NB cells))
Test: radioligand binding

“nerve growth factor (NGF), mouse salivary glands (from UniProt P01139 122-241) (ligand)” showed a Ka of 1e+07 M⁻¹.
